This assay has as its target HLA-A*02 (Homo sapiens, UniProt P04439, D140Y/D185E/D98H/E176V/E277Q/G131W/G231S/I119V/I121R/I166T/I218V/L300P/N151K/N90K/P208A/P217A/Q86G/Q94H/R138H/R169H). The assay is described as follows: MHC binding assay, UV-ligand exchange with beta2m ELISA, HLA-A*02. Particulars: binding to HLA-A*02 ranged by peptide exchange yield (UV-ligand exchange, beta2m ELISA). The source says:
Candidate peptides for T cell based therapies according to the present invention were further tested for their MHC binding capacity (affinity). The individual peptide-MHC complexes were produced by UV-ligand exchange, where a UV-sensitive peptide is cleaved upon UV-irradiation, and exchanged with the peptide of interest as analyzed. Only peptide candidates that can effectively bind and stabilize the peptide-receptive MHC molecules prevent dissociation of the MHC complexes. To determine the yield of the exchange reaction, an ELISA was performed based on the detection of the light chain (ß2 m) of stabilized MHC complexes. The assay was performed as generally described in Rodenko et al. (Rodenko et al., 2006).
96 well MAXISorp plates (NUNC) were coated over night with 2 ug/ml streptavidin in PBS at room temperature, washed 4× and blocked for 1 h at 37° C. in 2% BSA containing blocking buffer. […] Peptide-MHC monomers of the UV-exchange reaction were diluted 100 fold in blocking buffer. Samples were incubated for 1 h at 37° C., washed four times, incubated with 2 ug/ml HRP conjugated anti-β2 m for 1h at 37° C., washed again and detected with TMB solution that is stopped with […]. Absorption was measured at 450 nm. Candidate peptides that show a high exchange yield (preferably higher than 50%, most preferred higher than 75%) are generally preferred for a generation and production of antibodies or fragments thereof, and/or T cell receptors or fragments thereof, as they show sufficient avidity to the MHC molecules and prevent dissociation of the MHC complexes.
On the technique in general: In an ELISA, binding on a coated surface is turned into a signal by an enzyme label.

Regarding “18 (YVLNEEDLQKV; listed as Homo sapiens) [compound 18]”, the Peptide exchange entry is “+++ (50%-75% = +++)”. To “325 (RLLPKVQEV; listed as Homo sapiens) [compound 325]” belongs “++ (20%-49% = ++)”. To “36 (KLYGIEIEV; listed as Homo sapiens) [compound 36]” belongs “++++ (>=75% = ++++)”; to “74 (ILDETLENV; listed as Homo sapiens) [compound 74]”, “++ (20%-49% = ++)”; to “50 (EYALLYHTL; listed as Homo sapiens) [compound 50]”, “++ (20%-49% = ++)”. As for “328 (SVDSAPAAV; listed as Homo sapiens) [compound 328]”, the entry is “++ (20%-49% = ++)”; as for “90 (GAVAEEVLSSI; listed as Homo sapiens) [compound 90]”, “+ (<20% = +)”. As to “334 (GRADALRVL; listed as Homo sapiens) [compound 334]”, the Peptide exchange entry is given as “+++ (50%-75% = +++)”. Take “78 (LLWGHPRVA; listed as Homo sapiens) [compound 78]”: the Peptide exchange entry is given as “+++ (50%-75% = +++)”. As for “22 (MLSDLTLQL; listed as Homo sapiens) [compound 22]”, the entry is “++++ (>=75% = ++++)”; as for “42 (VLSPFILTL; listed as Homo sapiens) [compound 42]”, “+++ (50%-75% = +++)”; as for “69 (GIYDGILHSI; listed as Homo sapiens) [compound 69]”, “+++ (50%-75% = +++)”. “321 (SLWFKPEEL; listed as Homo sapiens) [compound 321]”: the Peptide exchange result is recorded as “+++ (50%-75% = +++)”. To “58 (ALDDSLTSL; listed as Homo sapiens) [compound 58]” belongs “++ (20%-49% = ++)”. As for “79 (SLVPLQILL; listed as Homo sapiens) [compound 79]”, the entry is “++++ (>=75% = ++++)”; as for “14 (LLDHLSFINKI; listed as Homo sapiens) [compound 14]”, “++ (20%-49% = ++)”; as for “327 (SIGDIFLKY; listed as Homo sapiens) [compound 327]”, “+++ (50%-75% = +++)”.

Consider “25 (IQADDFRTL; listed as Homo sapiens) [compound 25]”, for which the Peptide exchange result is given as “++ (20%-49% = ++)”.

As to “85 (STLDGSLHAV; listed as Homo sapiens) [compound 85]”, the Peptide exchange entry is given as “+++ (50%-75% = +++)”. For “20 (ALDGHLYAI; listed as Homo sapiens) [compound 20]”, the Peptide exchange result is listed as “+++ (50%-75% = +++)”.

With “40 (SLLALPQDLQA; listed as Homo sapiens) [compound 40]”, the Peptide exchange result is given as “+++ (50%-75% = +++)”.

Regarding “49 (LLDESKLTL; listed as Homo sapiens) [compound 49]”, the Peptide exchange entry is “+++ (50%-75% = +++)”.

As to “35 (YVLPKLYVKL; listed as Homo sapiens) [compound 35]”, the Peptide exchange entry is on record as “++ (20%-49% = ++)”. As to “339 (VLGPGPPPL; listed as Homo sapiens) [compound 339]”, the Peptide exchange entry is recorded as “++ (20%-49% = ++)”. To “33 (LLLPLLPPLSPSLG; listed as Homo sapiens) [compound 33]” belongs “+++ (50%-75% = +++)”; to “67 (GVIETVTSL; listed as Homo sapiens) [compound 67]”, “++ (20%-49% = ++)”; to “330 (FLWPKEVEL; listed as Homo sapiens) [compound 330]”, “+++ (50%-75% = +++)”. Turning to “83 (ELLEYLPQL; listed as Homo sapiens) [compound 83]”, the Peptide exchange entry is recorded as “+++ (50%-75% = +++)”.

As to “84 (FLEEEITRV; listed as Homo sapiens) [compound 84]”, the Peptide exchange result was “+++ (50%-75% = +++)”.

“26 (KVDGVVIQL; listed as Homo sapiens) [compound 26]”: the Peptide exchange entry is given as “+++ (50%-75% = +++)”.

As to “62 (SLFNQEVQI; listed as Homo sapiens) [compound 62]”, the Peptide exchange result is recorded as “+++ (50%-75% = +++)”. As for “44 (GLLWQIIKV; listed as Homo sapiens) [compound 44]”, the entry is “++ (20%-49% = ++)”. As for “31 (ALSDETKNNWEV; listed as Homo sapiens) [compound 31]”, the entry is “++++ (>=75% = ++++)”; as for “53 (SLLSHVIVA; listed as Homo sapiens) [compound 53]”, “+++ (50%-75% = +++)”; as for “11 (GVLKVFLENV; listed as Homo sapiens) [compound 11]”, “++ (20%-49% = ++)”. To “16 (HLYNNEEQV; listed as Homo sapiens) [compound 16]” belongs “++ (20%-49% = ++)”. With “338 (LLYDGKLSSA; listed as Homo sapiens) [compound 338]”, the Peptide exchange entry is listed as “++ (20%-49% = ++)”. As for “75 (ILDNVKNLL; listed as Homo sapiens) [compound 75]”, the entry is “+++ (50%-75% = +++)”; as for “60 (FLIDTSASM; listed as Homo sapiens) [compound 60]”, “++ (20%-49% = ++)”. To “324 (AIFDFCPSV; listed as Homo sapiens) [compound 324]” belongs “++++ (>=75% = ++++)”. To “66 (FITDFYTTV; listed as Homo sapiens) [compound 66]” belongs “+++ (50%-75% = +++)”; to “13 (VLRDNIQGI; listed as Homo sapiens) [compound 13]”, “+++ (50%-75% = +++)”. As to “337 (KVLGKIEKV; listed as Homo sapiens) [compound 337]”, the Peptide exchange entry is given as “+++ (50%-75% = +++)”. To “3 (TLLGKQVTL; listed as Homo sapiens) [compound 3]” belongs “+++ (50%-75% = +++)”; to “10 (KTLDVFNIIL; listed as Homo sapiens) [compound 10]”, “++ (20%-49% = ++)”.

On to “92 (LLRGPPVARA; listed as Homo sapiens) [compound 92]”, for which the Peptide exchange result was “++ (20%-49% = ++)”. As for “340 (SVAKTILKR; listed as Homo sapiens) [compound 340]”, the entry is “++ (20%-49% = ++)”. As for “55 (IASAIVNEL; listed as Homo sapiens) [compound 55]”, the entry is “++ (20%-49% = ++)”. Regarding “89 (YLVAHNLLL; listed as Homo sapiens) [compound 89]”, the Peptide exchange entry is reported as “+++ (50%-75% = +++)”. To “333 (GTFLEGVAK; listed as Homo sapiens) [compound 333]” belongs “+++ (50%-75% = +++)”; to “72 (GMIGFQVLL; listed as Homo sapiens) [compound 72]”, “+++ (50%-75% = +++)”; to “87 (YLTEVFLHVV; listed as Homo sapiens) [compound 87]”, “+++ (50%-75% = +++)”. With “29 (TLCNKTFTA; listed as Homo sapiens) [compound 29]”, the Peptide exchange entry is “+++ (50%-75% = +++)”. “46 (SLAKHGIVAL; listed as Homo sapiens) [compound 46]”: the Peptide exchange entry was “+++ (50%-75% = +++)”.

(Values after patent US11541107B2, “Peptides and T cells for use in immunotherapeutic treatment of various cancers” (Immatics Biotechnologies GmbH, priority 2015, dated 2023).)
